Target: Atg16 (human (endogenous in HCT116 and H1299)) (UniProt Q676U5)
Experiment: co-IP; lysates of HCT116/Shnon and HCT116/ShASPP1 cells (also H1299 with ASPP1 knock-down, Supplementary Figure 3B) immunoprecipitated with anti-Atg16 antibody; co-precipitated proteins detected by western blot

Chain of UniProt Q676U5 (Q676U5 whole entry): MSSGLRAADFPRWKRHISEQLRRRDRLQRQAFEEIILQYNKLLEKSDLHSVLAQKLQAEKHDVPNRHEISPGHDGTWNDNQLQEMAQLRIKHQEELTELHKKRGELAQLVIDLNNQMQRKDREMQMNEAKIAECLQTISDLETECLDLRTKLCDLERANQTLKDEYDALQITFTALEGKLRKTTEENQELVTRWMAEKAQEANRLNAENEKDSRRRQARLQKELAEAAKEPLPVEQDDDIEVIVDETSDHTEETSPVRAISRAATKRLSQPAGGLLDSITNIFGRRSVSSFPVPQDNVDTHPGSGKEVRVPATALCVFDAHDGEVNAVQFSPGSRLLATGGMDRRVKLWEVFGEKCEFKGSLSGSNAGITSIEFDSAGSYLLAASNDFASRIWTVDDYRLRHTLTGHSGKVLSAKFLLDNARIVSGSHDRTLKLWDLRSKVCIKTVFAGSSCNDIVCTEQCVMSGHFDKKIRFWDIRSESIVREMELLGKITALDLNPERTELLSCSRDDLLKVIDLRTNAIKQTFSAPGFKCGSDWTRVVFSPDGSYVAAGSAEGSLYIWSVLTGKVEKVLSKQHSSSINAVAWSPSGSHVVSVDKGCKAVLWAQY

With “Atg5–Atg12 conjugate (from UniProt Q9H1Y0 1-275; O94817 1-140) (complex)” as the substance, how does the fold increase of Atg5–Atg12 in the Atg16 immunoprecipitate, ASPP1 knock-down against control cells (H1299) read?
The fold increase of Atg5–Atg12 in the Atg16 immunoprecipitate, ASPP1 knock-down against control cells (H1299) was 2 fold.

And the fold increase of Atg5–Atg12 in the Atg16 immunoprecipitate, ASPP1 knock-down against control cells (HCT116)?
The fold increase of Atg5–Atg12 in the Atg16 immunoprecipitate, ASPP1 knock-down against control cells (HCT116) was 2 fold.
